From US20230285509A1, “INTERFERON-BASED DISEASE TREATMENT METHOD” (XIAMEN AMOYTOP BIOTECH CO., LTD., priority 2019, published 2023)
“And” between values parts separate entries of the source, which are not always exact repeats. Equal entries are not always repeated.

What was measured:
colorectal cancer CT26 = assay: Colorectal cancer CT26 in mice, tumor volume (Example 9); format: in vivo, BALB/c mice; details: day 43; once a week; PEG-mIFN-α4 1.0 μg/w sc, gemcitabine 60 mg/kg/w ip
From the text: (§1) The anticancer agent was gemcitabine (Jiangsu Hansoh Pharmaceutical Group Co., Ltd). […] Statistical tests were all two-sided tests.

lung cancer LLC = assay: Lung cancer LLC in mice, tumor volume (Example 8); format: in vivo, C57BL/6N mice; details: 24 days after tumor inoculation; once a week; PEG-mIFN-α4 1.0 μg/w sc, gemcitabine 60 mg/kg/w ip
From the text: as §1

melanoma B16 = assay: Melanoma B16 in mice, tumor volume (Example 10); format: in vivo, C57BL/6N mice; details: 14 days after tumor inoculation; once a week; PEG-mIFN-α4 1.0 μg/w sc, gemcitabine 60 mg/kg/w ip
From the text: as §1

[1] = test system: transplanted liver cancer H22; assay: Transplanted liver cancer H22 in mice, survival, gemcitabine combination (Example 11); format: in vivo, BALB/c mice; details: gemcitabine 60 mg/kg ip once a week
Procedure: After being divided into groups, the corresponding drugs or saline were administered. […] With respect to the intermittent administration, it was administered once every 48 hours, for three times continuously, before discontinuation of 144 hours. Gemcitabine was administered by intraperitoneal injection at a dose of 60 mg per kilogram of body weight each time, once a week. The normal saline control group was given an equal volume of normal saline. The PEG-mIFN-α4 intermittent administration combined with gemcitabine group was given gemcitabine during the first injection of PEG-mIFN-α4, and then administered with gemcitabine once a week thereafter. All groups were subjected to survival analysis to compare differences between groups.

liver cancer H22 = assay: Liver cancer H22 in mice, tumor volume (Example 7); format: in vivo, BALB/c mice; details: 18 days after tumor inoculation; once a week; PEG-mIFN-α4 1.0 μg/w sc, gemcitabine 60 mg/kg/w ip
Procedure: The average tumor volume for each individual group was calculated based on the formula V=1/2ab^2 (a and b represent length and width (mm) respectively) by measuring the tumor diameter, and the anti-tumor effect was observed dynamically.
Statistical tests were all two-sided tests.

[2] = test system: mouse fibroblast/encephalomyocarditis virus (L929/EMCV); assay: Mouse fibroblast/encephalomyocarditis virus (L929/EMCV) cytopathic inhibition method; format: cell-based; details: commercial mIFN-α4 (R&D) as the standard
Procedure: (§2) The bacterial endotoxin content of the deglycosylated mIFN-α4 stock solution was determined by the Limulus reagent method as lower than 60 EU/mg. specific activity was determined as 5.4×10^8 U/mg by using the commercial mIFN-α4 (R&D, catalog number 12115-1) as the standard, and by using the mouse fibroblast/encephalomyocarditis virus (L929/EMCV) cytopathic inhibition method.
as §2, with “PEG-mIFN-α4” for “deglycosylated mIFN-α4”, “15” for “60”, “Specific” for “specific”, “6.1×10^6” for “5.4×10^8”

[3] = parameters: species or system BALB/c mice; details: mouse, in vivo, sc
Procedure: In this example, BALB/c mice were purchased from Beijing Vital River Laboratory Animal Technology Co., Ltd. The blood concentration of PEG-mIFN-α4 was detected by double-antibody sandwich ELISA.
6-8 weeks old, SPF grade BALB/c mice (N=60, with fifty-fifty of male and female mice) were injected with a single injection of 1 μg/mouse PEG-mIFN-α4 subcutaneously on the back of the neck. Plasma samples were collected before the injection (0 h) and after the injection at 15 h, 24 h, 36 h, 48 h, 72 h, 96 h, 120 h, 168 h, 216 h, 264 h, 312 h, to determine the blood concentration. Phoenix WinNonlin 6.4 software was used to calculate the pharmacokinetic parameters.

[4] = test system: transplanted liver cancer H22; assay: Continuous vs intermittent administration, transplanted liver cancer H22 in mice, survival (Example 6); format: in vivo, BALB/c mice

| Molecule | Mean tumor volume (Standard deviation) (colorectal cancer CT26) | Mean tumor volume (Standard deviation) (lung cancer LLC) | Mean tumor volume (Standard deviation) (melanoma B16) | mortality rate ([1]; by day 41, PEG-mIFN-α4 1 microgram per mouse intermittent) [%] | Median survival period (Time after tumor inoculation, days) [1] [days] | Mean tumor volume (Standard deviation) (liver cancer H22) | Specific activity [2] | Cl_F—obs [3] [mL/h] | T1/2 (elimination half-life) [3] [h] | Tmax (plasma concentration peak time) [3] [h] | Vz_F—obs [3] [mL] | Median survival period (Time after tumor inoculation, days) ([4]; continuous administration: 1 microgram per animal sc once every 48 hours, 21 times) | Survival rate during the observation period ([4]; intermittent administration: 1 microgram per animal sc once every 48 hours for 3 times, suspended 144 hours, 4 rounds, Day 40 after tumor inoculation) |
| --- | --- | --- | --- | --- | --- | --- | --- | --- | --- | --- | --- | --- | --- |
| Nc1ccn([C@@H]2O[C@H](CO)[C@@H](O)C2(F)F)c(=O)n1 [Gemcitabine, reference compound] | 1558.2 (2225.2) mm^3 | 1466.6 (791.5) mm^3 | 2279.9 (807.6) mm^3 | 73.1 | 21.5 | 1619.3 (911.2) mm^3 | – | – | – | – | – | – | – |
| deglycosylated mIFN-α4: recombinant mouse interferon α4 expressed in Pichia pastoris, glycosyl groups removed with glycosidase (protein, UniProt P07351 25-186, looked up, deglycosylated, recombinant mouse interferon α4 expressed in Pichia pastoris, glycosyl groups removed with glycosidase) Interferon alpha-4: CDLPHTYNLGNKRALTVLEEMRRLPPLSCLKDRKDFGFPLEKVDNQQIQKAQAILVLRDLTQQILNLFTSKDLSATWNATLLDSFCNDLHQQLNDLKACVMQEPPLTQEDSLLAVRTYFHRITVYLRKKKHSLCAWEVIRAEVWRALSSSTNLLARLSEEKE | – | – | – | – | – | – | 5.4×10^8 U/mg | – | – | – | – | – | – |
| PEG-mIFN-α4: PEGylated recombinant mouse interferon α4: deglycosylated mIFN-α4 modified with 40 kD Y-type polyethylene glycol succinimide ester (YPEG-NHS) (protein, UniProt P07351 25-186, looked up, 40 kD Y-type PEG, deglycosylated) Interferon alpha-4: CDLPHTYNLGNKRALTVLEEMRRLPPLSCLKDRKDFGFPLEKVDNQQIQKAQAILVLRDLTQQILNLFTSKDLSATWNATLLDSFCNDLHQQLNDLKACVMQEPPLTQEDSLLAVRTYFHRITVYLRKKKHSLCAWEVIRAEVWRALSSSTNLLARLSEEKE | 5283.7 (5030.5) mm^3 | 4000.8 (2513.7) mm^3 | 1639.7 (979.5) mm^3 | – | – | 846.2 (592.0) mm^3 | 6.1×10^6 U/mg | 0.07 | 28.3 | 24 | 2.91 | 38 days and 38.0 days | 93.3% and 93.3%. |
